Laboratory results reported in US20090274696A1, “METHODS FOR TREATING INFLAMMATION” (WYETH, priority 2008, published 2009).

Legend:
[1] = tested on: TSM of fresh tracheal rings; test: Force response of fresh tracheas from intranasally challenged mice; assay type: in vivo, mouse; settings: intranasal once a day×5 days, 100 nM rFIZZ1 or 0.1 ng/ml LPS; 24 hours after last treatment; PBS 100.00±14.63; N=5
Protocol: (§1) For some experiments, ex vivo TSM tensions of fresh tracheal rings and BAL cell counts were measured at 24 hours after the last treatment of mice receiving an intranasal dose of either PBS, 0.1 ng/m: LPS or 100 nM rFIZZ1 (once a day×5 days).
(§2) Trachea were supported longitudinally by a plexiglas rod with a stainless steel pin into the base of a double-jacketed, glass organ bath filled with 10 mL of Krebs-Henseleit (K-H) solution (37° C.) of the following composition: 118 mM NaCl; 4.7 mM KCl; 1.2 mM KH2PO4; 11.1 mM Dextrose; 1.2 mM MgSO4; 2.8 mM CaCl2; and 25 mM NaHCO3. The solution was maintained at a pH of 7.40-7.45 and continuously gassed with a mixture of 5% CO2 and […] for the duration of each experiment. […] Initial tensions of TSM were set at approximately 0.5 g and maintained for 1 hour. Agonists were given after a steady state of tension had been reached.
(§3) At the end of each force measurement experiment, tracheas were blotted on a gauze pad and weighted. Results were calculated as milligram of tension per milligram of TSM weight (mg/mg) and expressed as an individual percentage (%) of 10 μM CCh- or 200 μM papaverine-induced tension response in PBS-treated trachea. For the control group, CCh (papaverine)-mediated responses were normalized to the mean value of the maximal responses.

[2] = tested on: airway epithelium of cultured trachea; test: Histological examination of tracheal rings and airway epithelium; assay type: cell-based, mouse; settings: cultured overnight with FIZZ1 100 nM or LPS 0.1 ng/mL
Protocol: Histological examination of the structure of the airway and the status of the airway epithelial layer was performed in whole/sectional fresh trachea and as well as trachea cultured overnight with and without 100 nM FIZZ1. To understand the role of airway epithelium in regulating contractility of TSM, we measured the contractile response of tracheal rings after the epithelium was mechanically removed. Briefly, airway epithelial cells were removed by gently rubbing the intraluminal surface with polyethylene tubing (Becton Dickinson & Company, MD USA) connected to a Precision Glide needle (30G1/2) followed by perfusion with 1.0 ml air bubbles and then 1.0 ml K-H solution (re). All of the experimental tracheas were stained with H & E solution (CAT hematoxylin, Edgar Degas Eosin Working Solution, Biocare Medical, Concord, Calif.) and photographed under a light microscope at ×4.0 and ×20 magnification. Tracheal morphometric analysis was performed using a computer-based image analysis system consisting of a Nikon Eclipse E800 microscope (Melville, N.Y. USA) with a SPOT RT Slider camera (Diagnostic Instruments, Inc., Sterling Heights, Mich. USA).

[3] = tested on: tracheal smooth muscle (TSM) of mouse tracheal rings; test: CCh-evoked force generation in cultured tracheal rings; assay type: cell-based; settings: FIG. 4B, 100 nM heat-inactivated or native rFIZZ1, 0.1 ng/mL LPS, PBS 100±4.82, n=6
Protocol: (§4) Experimental animals were sacrificed by CO2 asphyxiation. Tracheas were surgically excised and cleaned of adherent connective tissue. Each trachea was sectioned into rings 3-4 mm in length and cultured in DMEM containing 1.0 M HEPES, 1.0 M NaOH, 5% of heat-inactivated FBS (Hy-Clone, Logan, Utah), 0.2M glutamine, 1.0 M CaCl2, 2.5 μg/ml fungizone, 5 μg/mL insulin, 100 U/mL penicillin and 100 μg/mL streptomycin) (DMEM-5%) for 24 hours. For in vitro experiments, the tracheal rings were cultured in DMEM in the absence and presence of either 10 or 100 nM recombinant FIZZ1 (Leinco Technologies, USA) for 24 hours.
as §2
[CCh]-response curves at the doses ranging from 3×10^−8 to 10^−5 M were completed in tracheal rings in absence and presence of either FIZZ1 or LPS (0.1 ng/mL). Concentrations of agonist were increased only when force responses to the previous concentration had stabilized. To examine TSM relaxant responses to isoprenaline (ISO), tracheal rings were first contracted by an addition of 1.0 μM CCh (Sigma, USA). Once the contraction had stabilized, ISO (Sigma, USA) was introduced into each bath at increasing concentrations (3×10^−8-10^−5 M). […] In an additional experiment, the effect of FIZZ1 protein on the CCh-mediated force response was verified using 100 nM heat-inactivated FIZZ1 (natural and recombinant FIZZ1 solution heated at 70° C. for 60 min). Their dose-response curves were obtained as above. Fresh drug solutions such as CCh and ISO were made up on the day of the experiment. Doses of the above agents refer to the final bath concentration.
as §3

BAL cells [4] = test: Counts of BAL cells in intranasally challenged mice; assay type: in vivo, mouse; settings: intranasal once a day×5 days, 100 nM rFIZZ1 or 0.1 ng/ml LPS; vs PBS-treated mice
Protocol: as §1
(§5) PBS- and OA-treated mice were sacrificed and their airways lavaged once with 1.0 mL of PBS via tracheal cannulation. An equal volume of BAL from each mouse was collected and centrifuged (1200 rpm, 5 min). Total BAL cells were counted using a hemocytometer. BAL cells ([…]) collected from each sample were applied to a glass slide using a cytospin (800 rpm, 8 min) and then the slide was stained with Hema 3 Stain Set (Fisher Scientific) for the differential count of cells. The relative proportion of different cells counted from 300 cells/slide was factored to the number of total BAL cells collected in each group.

[5] = tested on: mouse tracheal epithelium cells (MTEC); test: Nitrite in MTEC supernatants, Griess reaction; assay type: cell-based; settings: PBS, 0.1 ng/mL LPS or 100 nM rFIZZ1; any measured time point; N=3
Protocol: MTEC culture was performed by following the protocol of You et al. (“Growth and differentiation of mouse tracheal epithelial cells: selection of a proliferative population,” Am J Physiol Lung Cell Mol Physiol, 2002, 283:L 1315-1321) with minor modification. Briefly, tracheas were incubated in 1.5 mg/mL pronase (Roche Molecular Biochemicals) for 18 h at 4° C. Cells were treated with 0.5 mg/mL crude pancreatic DNase I (Sigma-Aldrich) on ice for 5 min. After incubation in tissue culture plates for 3-4 h in 5% CO2 at 37° C., nonadherent cells were incubated in a plate coated with type I rat tail collagen (BD Biosciences) in modified BEBM (Lonza, Md. USA) containing 10 μg/ml insulin, 5 μg/ml transferrin, 25 ng/ml epidermal growth factor, 5 μg/ml epinephrine and 30 μg/ml bovine pituitary extract, 0.5 nM Hydrocortisone, 25 ng/ml hEGF, 15 nM Triiodothyronine, 0.25 μg/ml Gentamicin/amphotericin-B and 0.01 μM retinoic acid in 5% CO2 at 37° C. […]
Nitric oxide (NO) was examined by measuring an end product, nitrite, using the Griess reaction (Xu et al., “Arginase and autoimmune inflammation in the central nervous system,” Immunology, 2003; 110:141-148). […] Absorbance was read at 540 nm in an automated microplate reader. […]

[6] = tested on: tracheal smooth muscle (TSM) of mouse tracheal rings; test: ISO-induced relaxation of CCh-contracted tracheal rings; assay type: cell-based; settings: in either presence or absence of rFIZZ1
Protocol: as §4, §2
[CCh]-response curves at the doses ranging from 3×10^−8 to 10^−5 M were completed in tracheal rings in absence and presence of either FIZZ1 or LPS (0.1 ng/mL). Concentrations of agonist were increased only when force responses to the previous concentration had stabilized. To examine TSM relaxant responses to isoprenaline (ISO), tracheal rings were first contracted by an addition of 1.0 μM CCh (Sigma, USA). Once the contraction had stabilized, ISO (Sigma, USA) was introduced into each bath at increasing concentrations (3×10^−8-10^−5 M). […]
(§6) At the end of each force measurement experiment, tracheas were blotted on a gauze pad and weighted. Results were calculated as milligram of tension per milligram of TSM weight (mg/mg) and expressed as an individual percentage (%) of 10 μM CCh- or 200 μM papaverine-induced tension response in PBS-treated trachea. […]

BAL cells [7] = test: BAL cellular composition in OA-treated mouse model; assay type: in vivo; settings: OA/OA-treated mice vs PBS/PBS and OA/PBS; n=6
Protocol: (§7) Animals were divided into three groups including phosphate buffered saline (PBS)-sensitized and -challenged (PBS/PBS), OA-sensitized and PBS-challenged (OA/PBS), and OA-sensitized and -challenged mice (OA/OA). Mice were intraperitoneally injected with an equivalent volume (100 μL) of PBS or OA (20 μg) with 2.25 mg Al(OH)3 in PBS on day 0 and 14. From day 25 to 34, mice were challenged with an aerosol of PBS or OA (5% in PBS) for 30 min once a day for 10 consecutive days.
as §5

TSM of tracheal rings = test: TSM contractile response to CCh in OA-treated mouse model; assay type: in vivo; settings: PBS/PBS 100±6.77, n=6
Protocol: as §7
Experimental animals were sacrificed by CO2 asphyxiation. Tracheas were surgically excised and cleaned of adherent connective tissue. Each trachea was sectioned into rings 3-4 mm in length and cultured in DMEM containing 1.0 M HEPES, 1.0 M NaOH, 5% of heat-inactivated FBS (Hy-Clone, Logan, Utah), 0.2M glutamine, 1.0 M CaCl2, 2.5 μg/ml fungizone, 5 μg/mL insulin, 100 U/mL penicillin and 100 μg/mL streptomycin) (DMEM-5%) for 24 hours. For in vitro experiments, the tracheal rings were cultured in DMEM in the absence and presence of either 10 or 100 nM recombinant FIZZ1 (Leinco Technologies, USA) for 24 hours. […]
as §6

FIZZ1 protein = FIZZ1 protein in BAL by Western blot; assay type: in vivo, mouse; settings: OA/OA-treated mice
Protocol: as §7
Protein expression levels of were examined using Western blot analysis. Briefly, aliquots (100 μg/well) of BAL supernatant and tracheal lysate were loaded onto 4-20% SDS-PAGE gel in an equal volume. Size-fractionated proteins were transferred to nitrocellulose membrane and then blocked with 5% nonfat dried milk in TBS at room temperature for 60 min. […] Immunoreactive bands were detected by chemiluminesence. Protein expression levels were evaluated in relative to expression of β-actin in the same tissue. Quantification of Western blots for phosphorylated signaling proteins was performed using ImageJ and relative band intensity was calculated as % of the intensity of the β-actin protein band.

FIZZ1 mRNA = FIZZ1 mRNA expression in trachea by transcriptional profiling; assay type: in vivo, mouse; settings: OA/OA-treated mice over PBS/PBS- or OA/PBS-treated mice
Protocol: as §7
Three (3) groups of mice were analyzed using PBS/PBS, OA/PBS and OA/OA, with 18 animals per group. Tracheal rings from 6 animals per group were combined as replicates, to produce total RNA. […] RNA was quantified using the Nanoprop ND-1000 spectrophotometer. […] The Ovation kit utilizes the Ribo-SPIA process to linearly amplify and label, limiting amounts mRNA in a three-step process resulting in microgram quantities (Kum et al, “Novel Isothermal, Linear Nucleic Acid Amplification Systems for Highly Multiplexed Applications,” Clinical Chemistry, 2005; 51:1973-1981). Approximately 1.5 μg of purified and fragmented biotinylated cRNA, together with controls for quantitating the amount of each transcript, was hybridized to the mouse gene chip array, MOE 430—2.0 (Affymetrix) for 16-18 hours. […] Resulting signals were normalized and quantified using Gene Logic's MAS 5.0 software.

## lipopolysaccharide [LPS, reference compound]
[1]
  Maximal tensions (%) of TSM, CCh-evoked, fresh trachea: 108.28±5.44%
[2]
  smooth muscle layers, histology: clear and histologically intact
[3]
  maximal responses (%) of the tracheal rings, CCh-evoked: 96.40±4.31%
BAL cells [4]
  number of BAL cells: obvious increase
[5]
  changes in nitrite concentration in MTEC supernatants: not obvious

## CC(C)NCC(O)c1ccc(O)c(O)c1 (centres unmarked) [ISO, isoprenaline, reference compound]
[6]
  TSM relaxation, level relative to the relaxation by papaverine: 50%

B1: ovalbumin (protein, UniProt P01012 2-386, looked up)
Ovalbumin: GSIGAASMEFCFDVFKELKVHHANENIFYCPIAIMSALAMVYLGAKDSTRTQINKVVRFDKLPGFGDSIEAQCGTSVNVHSSLRDILNQITKPNDVYSFSLASRLYAEERYPILPEYLQCVKELYRGGLEPINFQTAADQARELINSWVESQTNGIIRNVLQPSSVDSQTAMVLVNAIVFKGLWEKAFKDEDTQAMPFRVTEQESKPVQMMYQIGLFRVASMASEKMKILELPFASGTMSMLVLLPDEVSGLEQLESIINFEKLTEWTSSNVMEERKIKVYLPRMKMEEKYNLTSVLMAMGITDVFSSSANLSGISSAESLKISQAVHAAHAEINEAGREVVGSAEAGVDAASVSEEFRADHPFLFCIKHIATNAVLFFGRCVSP
notes: allergen used to sensitize and challenge mice (OA/OA, OA/PBS groups)
BAL cells [7]
  number of lymphocytes and eosinophils in the BAL: markedly increased
  number of total BAL cells: large increase
TSM of tracheal rings; OA/OA: OA-sensitized and -challenged mice
  contractile forces (%) of TSM to CCh: 127.75±3.54%
TSM of tracheal rings; OA/PBS: OA-sensitized and PBS-challenged mice
  contractile forces (%) of TSM to CCh: 105.21±2.71%
FIZZ1 protein
  FIZZ1 protein in the BAL: easily detected
FIZZ1 mRNA
  Fc in FIZZ1 mRNA expression in trachea: 1000 fold

B2: heat inactivated rFIZZ1: FIZZ1 solution heated at 70° C. for 60 min (protein, UniProt Q9EP95 24-111, looked up)
Resistin-like alpha: DETIEIIVENKVKELLANPANYPSTVTKTLSCTSVKTMNRWASCPAGMTATGCACGFACGSWEIQSGDTCNCLCLLVDWTTARCCQLS
modifications: heat inactivated
notes: FIZZ1 solution heated at 70° C. for 60 min
[3]
  maximal responses (%) of the tracheal rings, CCh-evoked: 100.00±4.77%
[3]; listed as Heat-inactivated FIZZ1
  maximal responses (%) of the tracheal rings, CCh-evoked: no observable effect
